From patent US20260062488A1 (AbbVie / Abbott, published 2026)
Where a chain is given by its changes, count along the chain named.

Key:
[1] = biological target: T1, human α4β7 integrin (human, UniProt P13612 34-1032; P26010 20-798); assay: blockade of MAdCAM-1 mediated HuT78 cell adhesion
T1 construct: also called hα4β7; a4b7

[2] = biological target: T2, cynomolgus α4β7 integrin (cynomolgus monkey); assay: blockade of CHOK1/cα4β7 adhesion to MAdCAM-1
T2 construct: whole, on cells; On CHOK1-cα4β7 cells or cynomolgus blood lymphocytes; also called cα4β7; cyno α4β7

[3] = biological target: T1, human α4β7 integrin; assay: FACS on α4β7-expressing HuT78 cells
[4] = biological target: T1, human α4β7 integrin; assay: FACS titration on BaF3-hα4β7
[5] = biological target: T1, human α4β7 integrin; assay: FACS, primary human CD4+ memory T cells
[6] = biological target: T1, human α4β7 integrin; assay: blockade of HuT78 cell adhesion to MAdCAM-1
[7] = biological target: T1, human α4β7 integrin; assay: blockade of HuT78 cell adhesion to MAdCAM-1; remark: listed apart in the source
[8] = biological target: T2, cynomolgus α4β7 integrin; assay: blockade of CHOK1-cα4β7 cell adhesion to MAdCAM-1
[9] = biological target: T2, cynomolgus α4β7 integrin; assay: blockade of CHOK1-cα4β7 cell adhesion to MAdCAM-1; remark: listed apart in the source
[10] = biological target: T1, human α4β7 integrin; assay: FACS binding, human CD4+CD45RO+ T cells, summary table
[11] = biological target: T1, human α4β7 integrin; assay: MadCAM-1/HuT78 potency (adhesion blockade), summary table
[12] = biological target: T2, cynomolgus α4β7 integrin; assay: MadCAM-1/cα4β7 potency (adhesion blockade), summary table
[13] = biological target: T1, human α4β7 integrin; assay: inhibition of MAdCAM-1 binding to human CD4+CD45RO+ T cells
[14] = biological target: T2, cynomolgus α4β7 integrin; assay: ratio of cyno to human adhesion-blockade potency, summary table
[15] = biological target: T1, human α4β7 integrin; assay: row IC50 (pM) HuT78 of the binning table (assay not explained, presumably adhesion to MAdCAM-1)
[16] = biological target: T1, human α4β7 integrin; assay: blockade of HuT78 cell adhesion to plate-bound MAdCAM-1, representative experiment; the two IC50 lines under the plot bear no name: the lower one is given to Ab-m1, whose curve lies left of Ab-Vedo's (midpoint near log -2.1 ug/ml)
[17] = biological target: T2, cynomolgus α4β7 integrin; assay: blockade of CHOK1-cα4β7 cell adhesion to MAdCAM-1, representative experiment; the two IC50 lines under the plot bear no name: the lower one is given to Ab-m1, whose curve lies clearly left of Ab-Vedo's (midpoint near log -1.6 ug/ml)
[18] = biological target: T1, human α4β7 integrin; assay: FACS, primary human CD4+ memory T cells (CD4+CD45RO+), one whole blood

B1: Ab-h1.5 (antibody, human IgG1, V domains shown)
VH: EVQLVQSGAEVKKPGSSVKVSCTTSGFNIKNTYMHWVKQRPGQGLEWIGRIDPANGHTEYAPKFQGKATITADESTNTAYLELSSLRSEDTAVYYCYYVDSWGQGTTVTVSS
VL: DIQMTQSPSSLSASVGDRVTITCHASQGISDNIGWLQQKPGKSFKGLIYHGTNLEDGVPSRFSGSGSGADYTLTISSLQPEDFATYYCVQYAQFPWTFGGGTKVEIKR
[1]
  IC50: 0.0091 nM

B2: Ab-h1.9 (antibody, human IgG1, V domains shown)
VH: B1 VH with T23K, T24A, K38R, R40A, K67R, A68V, L81M
VL: DIQMTQSPSSLSASVGDRVTITCHASQGISDNIGWLQQKPGKSFKLLIYHGTNLEDGVPSRFSGSGSGTDYTLTISSLQPEDFATYYCVQYAQFPWTFGGGTKVEIK
notes: Humanized, human IgG1 and kappa constant regions; also called Ab-H1.9 (parental)
[2]
  IC50: 0.0365 nM
[1]
  IC50: 0.0114 nM

B3: Ab-h1.9e (antibody, V domains shown)
VH: B1 VH with T23K, T24A, K38R, R40A, N55G, Q65I, K67R, A68V, L81M, D100A
VL: B2 VL with G28E
notes: Liability-engineered clone converted to IgG format [hu IgG1/k]; constant regions of the tested mAb not specified
[3]
  binding result: binds

B4: Ab-h1.9b (antibody, V domains shown)
VH: B1 VH with T23K, T24A, K38R, R40A, N55R, Q65S, K67R, A68V, L81M, S101Q
VL: B2 VL with G28D
notes: as for B3
[3]
  binding result: binds

B5: Ab-h1.6 (antibody, human IgG1, V domains shown)
VH: B1 VH
VL: B2 VL
[1]
  IC50: 0.0081 nM

B6: Ab-h1.9a (antibody, V domains shown)
VH: B1 VH with T23K, T24A, K38R, R40A, G56K, Q65L, K67R, A68V, L81M, D100A
VL: B2 VL with G28E
notes: as for B3
[3]
  binding result: binds

B7: Ab-h1.8 (antibody, human IgG1, V domains shown)
VH: B1 VH with T23K, T24A, K38R, R40A, K67R, A68V, L81M
VL: B1 VL
[1]
  IC50: 0.0138 nM

B8: Ab-m1 (antibody, V domains shown)
VH: EVQLQQSVAELVRPGASVKLSCTTSGFNIKNTYMHWVKQRPKQGLEWIGRIDPANGHTEYAPKFQGKATITADTSSNTAYLHLSSLTSDDTAIYYCYYVDSWGQGTTLTVSS
VL: DILMTQSPSSMSVSLGDTVSITCHASQGISDNIGWLQQRPGKSFKGLIYHGTNLEDGVPSRFSGSGSGADYSLTISSLESEDFADYYCVQYAQFPWTFGGGTTLEIK
notes: Hybridoma antibody, mouse IgG1/kappa; also called murine antibody Ab-m1; Mouse anti-human α4β7 [mu IgG1/k
[4]
  EC50: 0.474 nM
[5]
  EC50: 0.0098 nM
[6]
  IC50: 0.0555 nM
[7]
  IC50: 0.0228 nM
[8]
  IC50: 0.201 nM
[9]
  IC50: 0.0658 nM
[10]
  EC50: 0.0098 nM
[11]
  IC50: 0.0555 nM
[12]
  IC50: 0.201 nM
[13]
  IC50: 0.0637 nM
[14]
  Cyno x-reactivity: 4 fold
[15]
  IC50: 0.0447 nM
[16]
  IC50: 0.0511 nM
[17]
  IC50: 0.165 nM

B9: Ab-c1 (antibody, human IgG1, V domains shown)
VH: B8 VH
VL: B8 VL
notes: Ab-m1's variable regions with human IgG1/k constant regions; also called murine-human chimera Ab-c1; Chimeric anti-human α4β7 [hu IgG1/k
[7]
  IC50: 0.0137 nM
[9]
  IC50: 0.0864 nM
[18]
  EC50: 0.0039 nM
